From patent US20240050432A1 (Infinity Pharmaceuticals, Inc., priority 2020, published 2024)
Like-named read-outs stand apart in the source and are kept apart here.

Assays:
[1] = system: advanced urothelial carcinoma; assay: Phase 2 randomized study of eganelisib + nivolumab vs nivolumab: response, PFS, OS; format: in vivo, human; settings: for Median PFS: preliminary PFS
Source text: (§1) Methods: Eligible patients (pts) with mUC who progressed on >1 platinum-based chemotherapy regimen and were CPI naïve were enrolled. […] Pts were stratified by baseline circulating monocytic myeloid derived suppressor cells (mMDSC) level. The primary endpoint was objective response rate (ORR) per RECIST v1.1 in pts with high baseline mMDSC levels. Other endpoints included ORR, progression free survival (PFS) and overall survival (OS) in all pts, PD-L1+/−pts and pts with hepatic adverse events (AE).
Advanced platinum refractory 2nd line urothelial cancer patients: Inclusion/exclusion criteria per CheckMate-275; MDSC* all corners (stratified); PD-L1** status all corners (non-stratified). • * Circulating mMDSC levels measured in baseline peripheral blood samples based on a Clinical Laboratory Improvement Amendments (CLIA)-certified flow cytometry assay (low [<22.3%] or high [≥22.3%] or ≥/<the median MDSC level of patients in this trial) • ** PD-L1 expression measured in baseline/archival tumor biopsies with Dako PD-L1 immunohistochemical 28-8 pharmDx kit approved for nivolumab in UC, except 2 biopsies tested with 22C3 PD-L1 antibody prior to study (Tumor Proportion Score≥1% cutoff for PD-L1 (+)) • Primary objective: ORR in MDSC High • Secondary objectives: ORR, TTR, DOR, and PFS in total population+MDSC subsets; safety; PK • Exploratory objectives: safety and efficacy in biomarker subsets, including PD-L1; OS
(§2) The dose for nivolumab is 480 mg Q4W.

[2] = Phase 2 urothelial carcinoma study: adverse events; format: in vivo, human
Source text: as §1, §2

[3] = system: interferon alpha pathway; assay: Peripheral blood gene set enrichment, day 15 vs. day 0; format: in vivo, human
Source text: (§3) In all patients (day 15 vs. day 0): interferon gamma pathway: ES=0.81, p<0.01 (combination, n=31) vs. ES=0.51, p=0.28 (nivolumab, n=14); interferon alpha pathway: ES=0.87, p<0.01 (combination, n=31) vs. ES=0.53, p=0.39 (nivolumab, n=14). In PD-L1 negative patients (day 15 vs. day 0): interferon gamma pathway: ES=0.82, p<0.01 (combination, n=21) vs. ES=0.55, p=0.15 (nivolumab, n=5); interferon alpha pathway: ES=0.88, p<0.01 (combination, n=21) vs. ES=0.53, p=0.35 (nivolumab, n=5).

[4] = system: interferon gamma pathway; assay: as above; format: in vivo, human
Source text: as §3

[5] = system: metastatic urothelial carcinoma (mUC); settings: CheckMate-275, cited from earlier work
[6] = snapshot Jun. 26, 2021, PD-L1 negative patients
[7] = snapshot Jun. 26, 2021, all patients
[8] = preliminary analysis, N=33 vs N=16
[9] = preliminary analysis, N=33 vs N=16, 1 Grade 4
[10] = snapshot Jun. 26, 2021, N=33 vs N=16
[11] = PD-L1 negative patients, n=21 vs n=5

With “Nivolumab + Placebo: placebo with nivolumab (PN), active control arm” the “patients with reduction of tumor burden” value ([1]; PD-L1(−) patients, best change of target lesion) was 17%, the “Median PFS” value ([1]; ITT) was 8.5 wks and the “Median PFS” value ([1]; PD-L1(+)) was 16.4 wks. The “Median PFS” value ([1]; PD-L1(−)) was 7.9 wks, the “patients for whom durability of OS benefit continued to mature” value ([1]; snapshot Jun. 26, 2021) was 18% and the “median OS (mOS)” value [1, 6] was 7.9 months. For the same substance, the “median OS (mOS)” value [1, 7] was 7.9 months, the “asthenia, all-Gr AE” value ([2]; first 49 pts (33 EN, 16 PN)) was 31% and the “hepatotoxicity, Gr≥3 AE” value ([2]; first 49 pts (33 EN, 16 PN)) was 0%. The “pruritis, all-Gr AE” value ([2]; first 49 pts (33 EN, 16 PN)) was 6%, the “pyrexia, all-Gr AE” value ([2]; first 49 pts (33 EN, 16 PN)) was 0% and the “rash, Gr≥3 AE” value ([2]; first 49 pts (33 EN, 16 PN)) was 0%. For the same substance, the “rash, all-Gr AE” value ([2]; first 49 pts (33 EN, 16 PN)) was 6%, the “transaminase elevation, Gr≥3 AE” value ([2]; first 49 pts (33 EN, 16 PN)) was 6% and the “transaminase elevation, all-Gr AE” value ([2]; first 49 pts (33 EN, 16 PN)) was 6%. For the same substance, the “Aspartate aminotransferase increased, Grade≥3 TEAE, Related to Eganelisib (Placebo in control arm)” value [2, 8] was 0 n (%), the “Aspartate aminotransferase increased, Grade≥3 TEAE, Related to Nivolumab” value [2, 8] was 0 n (%) and the “Asthenia, TEAE, All Causality” value [2, 8] was 4 (25.0) n (%). For the same substance, the “Asthenia, TEAE, Related to Eganelisib (Placebo in control arm)” value [2, 8] was 2 (12.5) n (%), the “Asthenia, TEAE, Related to Nivolumab” value [2, 8] was 1 (6.3) n (%) and the “Decreased appetite, TEAE, All Causality” value [2, 8] was 4 (25.0) n (%). For the same substance, the “Decreased appetite, TEAE, Related to Eganelisib (Placebo in control arm)” value [2, 8] was 1 (6.3) n (%), the “Decreased appetite, TEAE, Related to Nivolumab” value [2, 8] was 0 n (%) and the “Disease progression, Grade≥3 TEAE, All Causality” value [2, 8] was 6 (37.5) n (%). For the same substance, the “Disease progression, Grade≥3 TEAE, Related to Eganelisib (Placebo in control arm)” value [2, 8] was 0 n (%), the “Disease progression, Grade≥3 TEAE, Related to Nivolumab” value [2, 8] was 0 n (%) and the “Disease progression, TEAE, All Causality” value [2, 8] was 6 (37.5) n (%). The “Disease progression, TEAE, Related to Eganelisib (Placebo in control arm)” value [2, 8] was 0 n (%), the “Disease progression, TEAE, Related to Nivolumab” value [2, 8] was 0 n (%) and the “Hepatotoxicity, Grade≥3 TEAE, Related to Eganelisib (Placebo in control arm)” value [2, 8] was 0 n (%). The “Hepatotoxicity, Grade≥3 TEAE, Related to Nivolumab” value [2, 8] was 0 n (%), the “Pruritus, TEAE, All Causality” value [2, 8] was 1 (6.3) n (%) and the “Pruritus, TEAE, Related to Eganelisib (Placebo in control arm)” value [2, 8] was 0 n (%). The “Pruritus, TEAE, Related to Nivolumab” value [2, 8] was 0 n (%), the “Pyrexia, TEAE, All Causality” value [2, 8] was 0 n (%) and the “Pyrexia, TEAE, Related to Eganelisib (Placebo in control arm)” value [2, 8] was 0 n (%). The “Pyrexia, TEAE, Related to Nivolumab” value [2, 8] was 0 n (%), the “Rash, TEAE, All Causality” value [2, 8] was 1 (6.3) n (%) and the “Rash, TEAE, Related to Eganelisib (Placebo in control arm)” value [2, 8] was 0 n (%). For the same substance, the “Rash, TEAE, Related to Nivolumab” value [2, 8] was 0 n (%), the “Aspartate aminotransferase increased, Grade≥3 TEAE, All Causality” value [2, 9] was 1 (6.3) n (%) and the “Hepatotoxicity, Grade≥3 TEAE, All Causality” value [2, 9] was 0 n (%). For the same substance, the “Anemia, Grade≥3 TEAE, All Causality” value [2, 10] was 1 (6.3) n (%), the “Anemia, Grade≥3 TEAE, Related to Eganelisib (Placebo in control arm)” value [2, 10] was 0 n (%) and the “Anemia, Grade≥3 TEAE, Related to Nivolumab” value [2, 10] was 0 n (%). For the same substance, the “Aspartate aminotransferase increased, Grade≥3 TEAE, All Causality” value [2, 10] was 1 (6.3) n (%), the “Aspartate aminotransferase increased, Grade≥3 TEAE, Related to Eganelisib (Placebo in control arm)” value [2, 10] was 1 (6.3) n (%) and the “Aspartate aminotransferase increased, Grade≥3 TEAE, Related to Nivolumab” value [2, 10] was 1 (6.3) n (%). The “Asthenia, TEAE, All Causality” value [2, 10] was 5 (31.3) n (%), the “Asthenia, TEAE, Related to Eganelisib (Placebo in control arm)” value [2, 10] was 2 (12.5) n (%) and the “Asthenia, TEAE, Related to Nivolumab” value [2, 10] was 1 (6.3) n (%). For the same substance, the “Decreased appetite, TEAE, All Causality” value [2, 10] was 5 (31.3) n (%), the “Decreased appetite, TEAE, Related to Eganelisib (Placebo in control arm)” value [2, 10] was 1 (6.3) n (%) and the “Decreased appetite, TEAE, Related to Nivolumab” value [2, 10] was 0 n (%). For the same substance, the “Disease progression, Grade≥3 TEAE, All Causality” value [2, 10] was 4 (25.0) n (%), the “Disease progression, Grade≥3 TEAE, Related to Eganelisib (Placebo in control arm)” value [2, 10] was 0 n (%) and the “Disease progression, Grade≥3 TEAE, Related to Nivolumab” value [2, 10] was 0 n (%). The “Disease progression, TEAE, All Causality” value [2, 10] was 4 (25.0) n (%), the “Disease progression, TEAE, Related to Eganelisib (Placebo in control arm)” value [2, 10] was 0 n (%) and the “Disease progression, TEAE, Related to Nivolumab” value [2, 10] was 0 n (%). The “Hepatotoxicity, Grade≥3 TEAE, All Causality” value [2, 10] was 0 n (%), the “Hepatotoxicity, Grade≥3 TEAE, Related to Eganelisib (Placebo in control arm)” value [2, 10] was 0 n (%) and the “Hepatotoxicity, Grade≥3 TEAE, Related to Nivolumab” value [2, 10] was 0 n (%). The “Pruritus, TEAE, All Causality” value [2, 10] was 1 (6.3) n (%), the “Pruritus, TEAE, Related to Eganelisib (Placebo in control arm)” value [2, 10] was 0 n (%) and the “Pruritus, TEAE, Related to Nivolumab” value [2, 10] was 0 n (%). For the same substance, the “Pyrexia, TEAE, All Causality” value [2, 10] was 0 n (%), the “Pyrexia, TEAE, Related to Eganelisib (Placebo in control arm)” value [2, 10] was 0 n (%) and the “Pyrexia, TEAE, Related to Nivolumab” value [2, 10] was 0 n (%). For the same substance, the “Rash, TEAE, All Causality” value [2, 10] was 1 (6.3) n (%), the “Rash, TEAE, Related to Eganelisib (Placebo in control arm)” value [2, 10] was 0 n (%) and the “Rash, TEAE, Related to Nivolumab” value [2, 10] was 0 n (%). The “Discontinued treatment: Adverse event, unrelated to treatment” value ([2]; snapshot Jun. 26, 2021, of discontinued patients) was 0 n.

In the case of nivolumab, the “overall survival probability at one year landmark” value [1, 6] is reported as 17%, the “overall survival probability at one year landmark” value [1, 7] is reported as 32% and the “gene set Enrichment Score (ES), interferon alpha pathway” value [3, 11] is reported as 0.53. For the same substance, the “gene set Enrichment Score (ES), interferon alpha pathway” value ([3]; all patients, n=31 vs n=14) was 0.53, the “gene set Enrichment Score (ES), interferon gamma pathway” value [4, 11] was 0.55 and the “gene set Enrichment Score (ES), interferon gamma pathway” value ([4]; all patients, n=31 vs n=14) was 0.51. For the same substance, the “Median OS (95% CI)” value ([5]; All (n = 270)) was 8.6 (6.1-11.3) mo, the “Median PFS (95% CI)” value ([5]; All (n = 270)) was 1.9 (1.9, 2.3) mo and the “ORR (95% CI)” value ([5]; All (n = 270)) was 20 (16-26) %. For the same substance, the “Median OS (95% CI)” value ([5]; PD-L1 < 1% (n = 146)) was 6.0 (4.4-8.1) mo, the “Median PFS (95% CI)” value ([5]; PD-L1 < 1% (n = 146)) was 1.9 (1.7, 2.0) mo and the “ORR (95% CI)” value ([5]; PD-L1 < 1% (n = 146)) was 16 (10-23) %. For the same substance, the “Median OS (95% CI)” value ([5]; PD-L1 ≥ 1% (n = 124)) was 11.9 (9.1-19.1) mo, the “Median PFS (95% CI)” value ([5]; PD-L1 ≥ 1% (n = 124)) was 3.5 (1.9, 3.7) mo and the “ORR (95% CI)” value ([5]; PD-L1 ≥ 1% (n = 124)) was 26 (18-34) %.
